Assay results published in patent US11466066B2, “Variants of human BMP7 protein” (ELI LILLY AND COMPANY, priority 2017, dated 2022).
Positions count from the first letter of the chain named. Names and notes keep the numbering of the source. Marks after values point to notes of the source that are not given here.

Tests used:
[1] = tested on: monosodium iodoacetate (MIA)-induced rat model of OA pain; assay: MIA rat model of osteoarthritic pain; format: in vivo
Description: The effect of human mature BMP7 protein variant F9 (SEQ ID NO: 8) may be evaluated in the monosodium iodoacetate (MIA)-induced rat model of OA pain (Bove, et. al., Osteoarthritis and Cartilage, 2003, 11: 821-830).
Briefly stated, male Lewis rats aged 7-8 weeks at the time of MIA injection may be used for this study. For induction of osteoarthritis, the rats may be anesthesized with isoflurane and given a single intra-articular injection of 0.3 mg/50 μl MIA through the infrapatellar ligament of the right knee. The left contralateral control knee may be injected with 50 μl sterile saline. The animals are treated with wild type human mature BMP7 protein at a dose of 1.0 μg/knee and human mature BMP7 protein variant F9 (SEQ ID NO: 8) at 0.175 μg and 0.7 μg/knee via intra-articular injections on day 9 and 14 post-MIA.
Pain measurements may be made by incapacitance testing on days 17, 24, 31, 38, 45, 52, 58, and 66 post-MIA injection using an incapacitance tester (Columbus Instruments International, Columbus, Ohio). Changes in hind paw weight distribution between the osteoarthritic (right) and contralateral control (left) limb may be utilized as an index of joint discomfort (measure of pain) in the osteoarthritic knee. Results may be presented as the difference in weight bearing between the contralateral control (left) and the osteoarthritic (right).

[2] = tested on: meniscal tear (MT) induced rat model of cartilage degeneration; assay: Meniscal tear rat model of cartilage degeneration; format: in vivo
Excerpt: The effect of human mature BMP7 protein variant (SEQ ID NO: 8) may be evaluated using an osteoarthritic (OA) pain in the meniscal tear (MT) induced rat model of cartilage degeneration. Male Lewis rats (approximately 25 weeks of age) may be used for such a study. Briefly described, rats may be anesthetized with 3% isoflurane prior to surgery. The right knee may be flexed and a transverse medial incision is made along the proximal antero-medial aspect of the tibia exposing the medial […] ligament. The […] ligament and the joint capsule may be incised simultaneously freeing the tibial attachments of the medial meniscus. Approximately 3 mm of the meniscus may be freed from its attachment to the margin of the tibial plateau and the meniscus may be transected to simulate a complete tear. The incision may be closed with surgical glue.
The animals may be treated with wild type human mature BMP7 at a dose of 350 ng/knee or human mature BMP7 protein variant F9 (SEQ ID NO: 8) at two doses of 49 ng or 245 ng/knee in 50 μl phosphate buffered saline (PBS), pH 7.4. The treatment may be initiated 3 weeks after MT surgery and continued for […]. Animals may be administered weekly intra-articular injections of wild type human mature BMP7 or human mature BMP7 protein variant F9 (SEQ ID NO: 8) or vehicle at various doses for 5 weeks into the operated knee. Pain measurements may be made by incapacitance testing on days 18 (baseline), 25, 31, 42 and 53 post MT surgery using an incapacitance tester (Columbus Instruments International, Columbus, Ohio). Changes in hind paw weight distribution between the osteoarthritic (right) and contralateral control (left) limb may be utilized as an index of joint discomfort (measure of pain) in the osteoarthritic knee. Results may be presented as the difference in weight bearing between the contralateral control (left) and the osteoarthritic (right).

[3] = tested on: rat primary articular chondrocytes (RPACs); assay: Chondrogenesis assay (pellet culture); format: cell-based; conditions: 2 weeks in culture
Description: The effect of wild type human mature BMP7 and variants thereof may be evaluated for differentiation of chondrocytes in an in vitro model utilizing rat primary articular chondrocytes (RPACs). To obtain RPACs, articular cartilage may be isolated from 2-3 day old rats. The cartilage may be digested with 0.4% collagenase for 2 hours and then the resultant cells may be washed with phosphate buffered saline and subsequently cultured in media containing DMEM, 10% FBS and 1% penicillin/streptomycin in humidified air with 5% CO2 at 37° C.
To assess the chondrogenic differentiation, a pellet culture system may be used. Approximately 2×10^5 cells from passage 2-3 may be placed in 1.5 ml tubes and centrifuged at 500 g for 10 minutes. The pellets may be cultured at 37° C. with 5% CO2 in 500 μl of medium. […] The media may be replaced twice per week for 2 weeks. After 2 weeks in culture, the pellets may be harvested and macroscopic analysis was performed by stereomicroscopic procedures. The images may be analyzed and the pellet sizes may be calculated in a 2-dimensional image.

[4] = tested on: rat surgical fracture model; assay: Bone healing model (cortical defect); format: in vivo; conditions: day 35; for BMC: mean ± SEM; for % Increase From Vehicle Control: BMC
Excerpt: The effect of wild type human mature BMP7 and variants thereof may be evaluated on bone regeneration and repair or bone healing in a rat surgical fracture model. Animals may be ovariectomized at 6 months of age and allowed to lose bone for two months before fracture surgery. Cortical defect surgery may be performed essentially as previously described (Komatsu, et al., Endocrinology, 150:1570-1579, 2009). Briefly, the procedure involves incising the skin over the lateral femoral aspect and blunt dissection of the quadriceps to expose the distal femoral diaphysis. Cortical defects may be then generated through the anterior and posterior cortexes using a Dremel tool (Robert Bosch Tool Corp, Gerlingen, Germany) equipped with a 2 mm orthopedic drill bit (Zimmer Inc, Warsaw, Ind.). The muscles may be subsequently repositioned, and the skin may be closed with tissue adhesive. Groups of animals may be treated with various amounts of wild type human mature BMP7 or variants thereof prepared in sodium citrate buffer pH 3.0 and adsorbed to Helistat type-1 collagen sponges in a volume of 50 μl. The treatments may be administered locally at the site of defect during surgery and treated for 35 days. A control group may receive the vehicle containing the same constituents in collagen sponge without the therapeutic proteins. In vivo fracture repair and bone mineral content (BMC) may be evaluated by quantitative computed tomography (QCT) using a GE Locus Ultra CT scanner (GE Healthcare, London, Ontario, Canada) as described previously (Komatsu et al., 2008).

[5] = 16.5 μg on collagen sponge at defect site

B1: Human mature BMP7 protein variant F9 (SEQ ID NO: 8): homodimer wherein each monomeric subunit has SEQ ID NO: 8 (Y65G/I86L/F93V/N110G/Y128W), disulfide linked (protein)
chain: STGSKQRSQNRSKTPKNQEALRMANVAENSSSDQRQACKKHELYVSFRDLGWQDWIIAPEGYAAGYCEGECAFPLNSYMNATNHALVQTLVHVINPETVPKPCCAPTQLGAISVLYFDDSSNVILKKWRNMVVRACGCH
modifications: homodimer, disulfide linked
- Difference in hind paw weight bearing ([1]; 0.175 μg/knee intra-articular day 9 and 14, Day 17 post-MIA): 23.29 ± 1.31 g
- Difference in hind paw weight bearing ([1]; 0.175 μg/knee, Day 24): 24.32 ± 2.97 g
- Difference in hind paw weight bearing ([1]; 0.175 μg/knee, Day 31): 21.87 ± 2.14 g
- Difference in hind paw weight bearing ([1]; 0.175 μg/knee, Day 38): 20.82 ± 1.03^b g
- Difference in hind paw weight bearing ([1]; 0.175 μg/knee, Day 45): 19.44 ± 0.80 g
- Difference in hind paw weight bearing ([1]; 0.175 μg/knee, Day 52): 19.35 ± 0.77 ^b g
- Difference in hind paw weight bearing ([1]; 0.175 μg/knee, Day 58): 17.42 ± 3.16^b g
- Difference in hind paw weight bearing ([1]; 0.175 μg/knee, Day 66): 15.00 ± 1.84^b g
- Difference in hind paw weight bearing ([1]; 0.7 μg/knee intra-articular day 9 and 14, Day 17 post-MIA): 36.75 ± 6.45^b g
- Difference in hind paw weight bearing ([1]; 0.7 μg/knee, Day 24): 29.78 ± 8.39 g
- Difference in hind paw weight bearing ([1]; 0.7 μg/knee, Day 31): 26.62 ± 6.07 g
- Difference in hind paw weight bearing ([1]; 0.7 μg/knee, Day 38): 23.63 ± 0.90 g
- Difference in hind paw weight bearing ([1]; 0.7 μg/knee, Day 45): 21.75 ± 4.34 g
- Difference in hind paw weight bearing ([1]; 0.7 μg/knee, Day 52): 20.51 ± 3.03 g
- Difference in hind paw weight bearing ([1]; 0.7 μg/knee, Day 58): 16.72 ± 0.79^b g
- Difference in hind paw weight bearing ([1]; 0.7 μg/knee, Day 66): 13.06 ± 1.78^b g
- Difference in hind paw weight bearing ([2]; Treatment C, 49 ng/knee weekly intra-articular, Baseline (day 18 post MT surgery)): 52.48 ± 2.11 g
- Difference in hind paw weight bearing ([2]; Treatment C, 49 ng, Day 25): 49.96 ± 0.66 g
- Difference in hind paw weight bearing ([2]; Treatment C, 49 ng, Day 31): 49.52 ± 1.10^b g
- Difference in hind paw weight bearing ([2]; Treatment C, 49 ng, Day 42): 44.8 ± 3.04^b g
- Difference in hind paw weight bearing ([2]; Treatment C, 49 ng, Day 53): 45.70 ± 2.77 g
- Difference in hind paw weight bearing ([2]; Treatment D, 245 ng/knee weekly intra-articular, Baseline (day 18 post MT surgery)): 52.02 ± 2.19 g
- Difference in hind paw weight bearing ([2]; Treatment D, 245 ng, Day 25): 49.77 ± 1.00 g
- Difference in hind paw weight bearing ([2]; Treatment D, 245 ng, Day 31): 49.54 ± 2.77^b g
- Difference in hind paw weight bearing ([2]; Treatment D, 245 ng, Day 42): 42.37 ± 1.28^b g
- Difference in hind paw weight bearing ([2]; Treatment D, 245 ng, Day 53): 38.68 ± 1.68^b g
- Pellet Size ([3]; Treatment 0.014 nM): 0.67 ± 0.16 mm^2
- Pellet Size ([3]; Treatment 0.14 nM): 1.56 ± 0.46^a mm^2
- Pellet Size ([3]; Treatment 1.4 nM): 2.61 ± 0.18^a mm^2
- BMC ([4]; 2.0 μg on collagen sponge at defect site): 16.19 ± 1.09 mg
- BMC [4, 5]: 18.13 ± 2.29^a mg
- cortical area ([4]; 16.5 μg): significant increase
- % Increase From Vehicle Control ([4]; 2.0 μg): 114%
- % Increase From Vehicle Control ([4]; 16.5 μg): 128%

B2: Wild type human mature BMP7 (SEQ ID NO: 2): dimer of two glycosylated, 139 amino acid disulfide-linked proteins of about 35 kDa, SEQ ID NO: 2 (protein, listed as Homo sapiens)
chain: B1 chain with G65Y, L86I, V93F, G110N, W128Y
modifications: disulfide-linked glycosylated homodimer
- Difference in hind paw weight bearing ([1]; 1.0 μg/knee intra-articular day 9 and 14, Day 17 post-MIA): 27.52 ± 2.81 g
- Difference in hind paw weight bearing ([1]; 1.0 μg/knee, Day 24): 26.05 ± 2.81 g
- Difference in hind paw weight bearing ([1]; 1.0 μg/knee, Day 31): 23.46 ± 1.23 g
- Difference in hind paw weight bearing ([1]; 1.0 μg/knee, Day 38): 22.68 ± 0.61 g
- Difference in hind paw weight bearing ([1]; 1.0 μg/knee, Day 45): 20.95 ± 0.87 g
- Difference in hind paw weight bearing ([1]; 1.0 μg/knee, Day 52): 20.37 ± 0.71 g
- Difference in hind paw weight bearing ([1]; 1.0 μg/knee, Day 58): 17.66 ± 1.79^b g
- Difference in hind paw weight bearing ([1]; 1.0 μg/knee, Day 66): 17.59 ± 2.68^b g
- Difference in hind paw weight bearing ([2]; Treatment B, 350 ng/knee weekly intra-articular, Baseline (day 18 post MT surgery)): 52.33 ± 2.45 g
- Difference in hind paw weight bearing ([2]; Treatment B, 350 ng, Day 25): 50.76 ± 1.09 g
- Difference in hind paw weight bearing ([2]; Treatment B, 350 ng, Day 31): 49.97 ± 1.10 g
- Difference in hind paw weight bearing ([2]; Treatment B, 350 ng, Day 42): 46.81 ± 1.34^b g
- Difference in hind paw weight bearing ([2]; Treatment B, 350 ng, Day 53): 47.77 ± 1.78 g
- Pellet Size ([3]; Treatment 0.02 nM): 0.64 ± 0.15 mm^2
- Pellet Size ([3]; Treatment 0.2 nM): 0.70 ± 0.03 mm^2
- Pellet Size ([3]; Treatment 2 nM): 0.83 ± 0.13 mm^2
- BMC [4, 5]: 16.25 ± 1.60 mg
- % Increase From Vehicle Control ([4]; 16.5 μg): 115%
